{"source": "the supplement of paper PMC10724198", "note": "± gives the standard deviation of the averaged measurements.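 Note: PSI is a weighted mean of sequencing reads over stability bins, variants kept only with over 10 reads, mCherry proximal and sfGFP distal, peptide attached via GGGS linker.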", "data": [{"system": "Saccharomyces cerevisiae", "assay": "protein stability index of tFT-peptide fusion (C-terminal peptide) (PSI (0-1 scale)); higher = more stable (slower turnover)", "details": "genetic background: wild type; temperature: 30 C", "procedure": "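Multiplexed protein stability (MPS) profiling in S. cerevisiae. Random 12-aa peptides (tFT-X12 library) are fused to the C-terminus of a sfGFP-mCherry tandem fluorescent timer, after mCherry and a GGGS linker. Cells are FACS-sorted into 8 mCherry/sfGFP bins and deep-sequenced. The protein stability index (PSI) is the read-weighted bin average, scaled from 0 (unstable) to 1 (stable). Only peptides with >10 reads are reported; cells were grown at 30 °C in SC-His with glucose.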", "values": [{"sequence": "CTGVFTGRCEGG", "protein stability index": "0.653 ± 0.028"}, {"sequence": "CTISHSGHSGST", "protein stability index": "0.706 ± 0.058"}, {"sequence": "CTQCCSGARLFM", "protein stability index": "0.672 ± 0.081"}, {"sequence": "CTRHNGTCRVKA", "protein stability index": "0.658 ± 0.017"}, {"sequence": "CTRRRLLVPRVK", "protein stability index": "0.599 ± 0.028"}, {"sequence": "CTVGWNLVFQFG", "protein stability index": "0.641 ± 0.08"}, {"sequence": "CVAACSGHAAVG", "protein stability index": "0.692 ± 0.017"}, {"sequence": "CVAAISGESLLR", "protein stability index": "0.667 ± 0.021"}, {"sequence": "CVDGLFCCLVFW", "protein stability index": "0.571 ± 0.028"}, {"sequence": "CVFLGRMSFLAF", "protein stability index": "0.602 ± 0.03"}, {"sequence": "CVGTDVWQASSR", "protein stability index": "0.6 ± 0.057"}, {"sequence": "CVIGRDGTDLWV", "protein stability index": "0.685 ± 0.0089"}, {"sequence": "CVPYLGEFTRNG", "protein stability index": "0.691 ± 0.038"}, {"sequence": "CVVAISGLSHFL", "protein stability index": "0.623 ± 0.015"}, {"sequence": "CVWCSGRSPCYV", "protein stability index": "0.634 ± 0.047"}, {"sequence": "CVWKWFSFSGGG", "protein stability index": "0.69 ± 0.021"}, {"sequence": "CWGGGGLWLLEV", "protein stability index": "0.515 ± 0.012"}, {"sequence": "CWGGWGLWLLEV", "protein stability index": "0.516 ± 0.023"}, {"sequence": "CWGLRVMGGTGR", "protein stability index": "0.702 ± 0.013"}, {"sequence": "CWSCLRGYRFQT", "protein stability index": "0.664 ± 0.028"}, {"sequence": "CYIFFFSRELFY", "protein stability index": "0.5685 ± 0.0045"}, {"sequence": "DAGVDVGVGTHD", "protein stability index": "0.605 ± 0.041"}, {"sequence": "DAGWTRGGEGVW", "protein stability index": "0.739 ± 0.032"}, {"sequence": "DARTLTECTCRG", "protein stability index": "0.648 ± 0.072"}, {"sequence": "DASLTSGVARST", "protein stability index": "0.67 ± 0.042"}, {"sequence": "DAVRRNSAWFSF", "protein stability index": "0.677 ± 0.025"}, {"sequence": "DAWRAGESTEGG", "protein stability index": "0.71 ± 0.027"}, {"sequence": "DCLSVWCSIPGA", "protein stability index": "0.775 ± 0.086"}, {"sequence": "DCRELCQSEVMG", "protein stability index": "0.643 ± 0.1"}, {"sequence": "DCRPNIRSRVSG", "protein stability index": "0.785 ± 0.18"}, {"sequence": "DCSCIYGHRVVV", "protein stability index": "0.6466 ± 0.0038"}, {"sequence": "DCVRMLREGAGW", "protein stability index": "0.721 ± 0.079"}, {"sequence": "DDFSHVEVFERV", "protein stability index": "0.7 ± 0.062"}, {"sequence": "DDGGQPKVLLCV", "protein stability index": "0.6688 ± 0.0011"}, {"sequence": "DDGRVSLGEQSG", "protein stability index": "0.673 ± 0.036"}, {"sequence": "DEFCSHSLAGSS", "protein stability index": "0.649 ± 0.024"}, {"sequence": "DEGFSRSGLLLK", "protein stability index": "0.6921 ± 0.003"}, {"sequence": "DEPGTEGAKPWR", "protein stability index": "0.727 ± 0.074"}, {"sequence": "DETELTQRTKRV", "protein stability index": "0.656 ± 0.017"}, {"sequence": "DFEVGPMGGFRC", "protein stability index": "0.674 ± 0.057"}, {"sequence": "DFGYSLRIIRSE", "protein stability index": "0.746 ± 0.0099"}, {"sequence": "DFLDPLQDEWPC", "protein stability index": "0.805 ± 0.039"}, {"sequence": "DFPIEEILGLVG", "protein stability index": "0.65 ± 0.05"}, {"sequence": "DFQRPGSFVFNG", "protein stability index": "0.658 ± 0.048"}, {"sequence": "DFRAGPLPCRPP", "protein stability index": "0.6952 ± 0.0041"}, {"sequence": "DGCRCQSMSKIS", "protein stability index": "0.553 ± 0.18"}, {"sequence": "DGGAGGLGLLGG", "protein stability index": "0.651 ± 0.0081"}, {"sequence": "DGGAGWLGLLGG", "protein stability index": "0.713 ± 0.034"}, {"sequence": "DGGALGVKGCDR", "protein stability index": "0.694 ± 0.054"}, {"sequence": "DGGVGGGAPRVR", "protein stability index": "0.78 ± 0.14"}, {"sequence": "DGGVPGVMVVGE", "protein stability index": "0.644 ± 0.024"}, {"sequence": "DGLGLLVGAGVG", "protein stability index": "0.623 ± 0.085"}, {"sequence": "DGRTYGHYKVVA", "protein stability index": "0.697 ± 0.027"}, {"sequence": "DGSIGASPGRGL", "protein stability index": "0.695 ± 0.015"}, {"sequence": "DGSKRDWFYNSA", "protein stability index": "0.725 ± 0.059"}, {"sequence": "DGVRGDVVTGYL", "protein stability index": "0.7131 ± 0.0057"}, {"sequence": "DHLQGRPDITDI", "protein stability index": "0.72 ± 0.09"}, {"sequence": "DIAYPRITDSRC", "protein stability index": "0.714 ± 0.045"}, {"sequence": "DIQINENIYKNK", "protein stability index": "0.687 ± 0.048"}, {"sequence": "DISSSILEIFTS", "protein stability index": "0.7031 ± 0.0032"}, {"sequence": "DKERRSKNRERR", "protein stability index": "0.698 ± 0.07"}, {"sequence": "DKKHRAPGIKIV", "protein stability index": "0.5008 ± 0.0018"}, {"sequence": "DKKPVQVIIIRK", "protein stability index": "0.667 ± 0.1"}, {"sequence": "DKNRNKKKKYER", "protein stability index": "0.641 ± 0.038"}, {"sequence": "DLGIFVSQQIEV", "protein stability index": "0.6065 ± 0.0048"}, {"sequence": "DLIYRLHTANWR", "protein stability index": "0.809 ± 0.034"}, {"sequence": "DLLTRAYPWPAE", "protein stability index": "0.692 ± 0.024"}, {"sequence": "DLRHLLVPVPRI", "protein stability index": "0.7066 ± 0.0022"}, {"sequence": "DLSCCVFLCLFF", "protein stability index": "0.513 ± 0.044"}, {"sequence": "DLSLQSLRSPIT", "protein stability index": "0.672 ± 0.022"}, {"sequence": "DLSNVITKMFVI", "protein stability index": "0.6542 ± 0.0036"}, {"sequence": "DLTITFYKSGQL", "protein stability index": "0.715 ± 0.032"}, {"sequence": "DLVLVSSQMPFA", "protein stability index": "0.683 ± 0.039"}, {"sequence": "DMGGLKACRGVG", "protein stability index": "0.5695 ± 0.0028"}, {"sequence": "DMTCSMEQHEDN", "protein stability index": "0.663 ± 0.019"}, {"sequence": "DMTVICDVAGQT", "protein stability index": "0.652 ± 0.019"}, {"sequence": "DNAFATAYWIVV", "protein stability index": "0.647 ± 0.054"}, {"sequence": "DNCIANLESGSL", "protein stability index": "0.691 ± 0.008"}, {"sequence": "DNHGWKVEGRLL", "protein stability index": "0.686 ± 0.015"}, {"sequence": "DNKGKDEESERR", "protein stability index": "0.709 ± 0.038"}, {"sequence": "DPAASNTTTRRL", "protein stability index": "0.686 ± 0.064"}, {"sequence": "DPAKRTLTRSRR", "protein stability index": "0.673 ± 0.0079"}, {"sequence": "DPARNDTTTETI", "protein stability index": "0.666 ± 0.027"}, {"sequence": "DPDPNHATGKIC", "protein stability index": "0.616 ± 0.014"}, {"sequence": "DPGGLSNYSRAS", "protein stability index": "0.67 ± 0.036"}, {"sequence": "DPHRTRPRITLP", "protein stability index": "0.715 ± 0.044"}, {"sequence": "DPISNVDVTKIR", "protein stability index": "0.6571 ± 0.0044"}, {"sequence": "DPPLRPSSLPPP", "protein stability index": "0.653 ± 0.0084"}, {"sequence": "DPPSVPSPLPTS", "protein stability index": "0.689 ± 0.016"}, {"sequence": "DQDAPNRPVDSS", "protein stability index": "0.695 ± 0.018"}, {"sequence": "DQKSGCPVRIYR", "protein stability index": "0.623 ± 0.029"}, {"sequence": "DQMVILSHYSVR", "protein stability index": "0.683 ± 0.038"}, {"sequence": "DQVGWVAGVDAR", "protein stability index": "0.707 ± 0.048"}, {"sequence": "DRGGDVGRCAGF", "protein stability index": "0.677 ± 0.011"}, {"sequence": "DRLPRHLPSLLP", "protein stability index": "0.715 ± 0.037"}, {"sequence": "DRMYDELFTKCC", "protein stability index": "0.619 ± 0.031"}, {"sequence": "DRNKRDERTSEE", "protein stability index": "0.744 ± 0.026"}, {"sequence": "DRPRPLPTPLPP", "protein stability index": "0.5905 ± 0.0021"}]}]}
